Consider 24 sequences from patent US20150132269.

Test in all cases: cell_activity
The test system of data set [1] is ZFN 46786 (synthetic). The following applies: pair with 46880.
Data set [2] deals with ZFN 46801 (synthetic). The following applies: pair with 46880.
The test system of data set [3] is ZFN 46934 (synthetic). The following applies: pair with 47923.
Data set [4] has as its system ZFN 46816 (synthetic). The following applies: pair with 47923.
Data set [5] deals with ZFN 45843 (synthetic). The following applies: pair with 45844, CD34+ cells.
For data set [6], the system named is ZFN 46189 (synthetic). The following applies: pair with 46188, K562.
For data set [7], the system named is ZFN 46228 (synthetic). The following applies: pair with 46226, K562.
Data set [8] has as its system ZFN 47923 (synthetic). The following applies: pair with 46801.
In data set [9] the test system is ZFN 46880 (synthetic). The following applies: pair with 46801.
The subject of data set [10] is ZFN 46216 (synthetic). The following applies: pair with 46217, K562.
The test system of data set [11] is ZFN 46247 (synthetic). The following applies: pair with 46246, K562.
Data set [12] relates to ZFN 46229 (synthetic). The following applies: pair with 46230, K562.
Data set [13] has as its system ZFN 46188 (synthetic). The following applies: pair with 46189, K562.
The subject of data set [14] is ZFN 46240 (synthetic). The following applies: pair with 46241, K562.
Data set [15] relates to ZFN 46164 (synthetic). The following applies: pair with 46163, K562.
Data set [16] deals with ZFN 46181 (synthetic). The following applies: pair with 46180, K562.
The subject of data set [17] is ZFN 46209 (synthetic). The following applies: pair with 46208, K562.
The subject of data set [18] is ZFN 46208 (synthetic). The following applies: pair with 46209, K562.
The test system of data set [19] is ZFN 46226 (synthetic). The following applies: pair with 46228, K562.
Data set [20] concerns ZFN 46217 (synthetic). The following applies: pair with 46216, K562.
Data set [21] relates to ZFN 46246 (synthetic). The following applies: pair with 46247, K562.
Data set [22] relates to ZFN 46163 (synthetic). The following applies: pair with 46164, K562.
Data set [23] deals with ZFN 47021 (synthetic). The following applies: pair with 45843.
For data set [24], the system named is ZFN 45844 (synthetic). The following applies: pair with 45843, CD34+ cells.
The test system of data set [25] is ZFN 46180 (synthetic). The following applies: pair with 46181, K562.
The test system of data set [26] is ZFN 46241 (synthetic). The following applies: pair with 46240, K562.
Data set [27] has as its system ZFN 46230 (synthetic). The following applies: pair with 46229, K562.
In data set [28] the test system is ZFN 46158 (synthetic). The following applies: pair with 46156, K562, Cel-I.
The test system of data set [29] is ZFN 46156 (synthetic). The following applies: pair with 46158, K562.

Take “AAAGCAACTGTTAGCTTGCACTAGACTA (double strand) [45848/46801 target]”: the activity in [1] is 71 % NHEJ (D0); in data set [2] it was 87 % NHEJ (D0); in data set [3], 80 % NHEJ (D0); in data set [4], 29.9 % indels. For “AAGCAACTGTTAGCTTGCACTAGACTAG (double strand) [45843 target]”, the activity in [5] is 78 % NHEJ (D0). “ACACCCTGTGATCTTGTGGGACCCCTCT (double strand) [46189 target]” showed an activity in data set [6] of 12.8 % NHEJ.

As for “ATAGGGGTCGCGGTAGGGAGTTGTCGGC (double strand) [46228 target]”, in data set [7], the activity was 37.8 % NHEJ.

For “CACAGGCTCCAGGAAGGGTTTGGCCTCT (double strand) [45849/46880 target]”, the activity in [8] was 82 % NHEJ (D0); in data set [9], 87 % NHEJ (D0).

In data set [10], “CAGGCTGGGCTGGACAGAGGGGTCCCAC (double strand) [46216 target]” displayed an activity of 16.6 % NHEJ. In [11], “CCGTCTACATAGAGGCCCTTCCTGCTTG (double strand) [46247 target]” yielded an activity of 17.3 % NHEJ.

Consider “CCTATCAGTGCCGACCAAGCACACAAGA (double strand) [46229 target]”, for which the activity in data set [12] came out at 37.2 % NHEJ. For the sequence “CCTGAGAAGGTGGGGAGCTCACAGCCTC (double strand) [46188 target]”, in data set [13], the activity turned out to be 12.8 % NHEJ.

The sequence “CTCACAGGACATGCAGCAGTGTGTGCCG (double strand) [46240 target]” yielded an activity in data set [14] of 25 % NHEJ.

As for “GAAGGGAAGTGGGTATGGGGCAGCCCAT (double strand) [46164 target]”, the activity in data set [15] worked out at 21.9 % NHEJ.

“GCAATGCTTGGAGGCTGTGAGCTCCCCA (double strand) [46181 target]” gave an activity in data set [16] of 15.2 % NHEJ. As to “GCCTGGGTGTGCATCTTGTGTGCTTGGT (double strand) [46209 target]”, the activity in data set [17] was found to be 28 % NHEJ.

In turn, “GGGCTGGACAGAGGGGTCCCACAAGATC (double strand) [46208 target]” returned an activity in data set [18] of 28 % NHEJ. Sequence “GTGCCGACCAAGCACACAAGATGCACAC (double strand) [46226 target]” had an activity in [19] of 37.8 % NHEJ. “GTGTGCATCTTGTGTGCTTGGTCGGCAC (double strand) [46217 target]” showed an activity in [20] of 16.6 % NHEJ.

As to “GTGTGGCTCCTTAAGGTGACCCAGCAGC (double strand) [46246 target]”, the activity in data set [21] is 17.3 % NHEJ. “TAGAATTGGCCTGGGACATTCATTATTT (double strand) [46163 target]” returned an activity in [22] of 21.9 % NHEJ. In the case of “TCACAGGCTCCAGGAAGGGTTTGGCCTC (double strand) [45844 target]”, the activity in data set [23] is 82 % NHEJ (D0); in [24], 78 % NHEJ (D0). Sequence “TCATCCTGGTACCAGGAAGGCAATGGGC (double strand) [46180 target]” showed an activity in data set [25] of 15.2 % NHEJ. For the sequence “TCCCCAAGGCTGTGCCCAGCCTTCAGTG (double strand) [46241 target]”, the activity in data set [26] worked out at 25 % NHEJ.

The sequence “TCGCGGTAGGGAGTTGTCGGCACACACT (double strand) [46230 target]” gave an activity in [27] of 37.2 % NHEJ.

In turn, “TCTAGGAAGGGAAGTGGGTATGGGGCAG (double strand) [46158 target]” gave an activity in [28] of 30.4 % NHEJ. On to “TGGCCTGGGACATTCATTATTTAGCCAC (double strand) [46156 target]”, for which, in [29], the activity was determined as 30.4 % NHEJ.
